Several values for one entry are separate records, joined by “and”; a condition that tells them apart may be missing. Equal values may be shown once.

Series [1] concerns the target Redβ single strand annealing protein from bacteriophage λ (bacteriophage λ) (UniProt P03698). The experiment in a line: SEC-MALS; Redβ alone, no DNA; Superose 6 increase 3.2/300, PBS, 0.04 ml/min; loaded at 34, 67 and 101 μM, eluted at 6.0, 13.5 and 18.5 μM; weight-average mass; monomers to oligomer.
The target is the same in series [2]. The experiment in a line: native MS; Redβ alone, no DNA, at 1 μM or greater (up to 30 μM); 50 mM ammonium acetate pH 7; monomers to 12-mer.
Series [3] has the same target. Described as above. The source holds these as a separate data set.
Series [4] shares this target. The experiment in a line: SEC-MALS; Redβ with dT38 ssDNA (6 nt/monomer, 22°C, 30 min); Superose 6 increase, PBS; loaded at 34 μM; n assumes one copy of dT38.
Series [5] shares this target. The description is as above. This is another data set of the same source.
Series [6] shares this target. The experiment in a line: SEC-MALS; Redβ with 83- ssDNA (6 nt/monomer, 22°C, 30 min); Superose 6 increase, PBS; loaded at 34 μM; n assumes one copy of the 83-mer.
Series [7] shares this target. In words: native MS; 1 μM Redβ with two complementary strands added sequentially (83-:83+ or 83-:87+), annealed duplex; 50 mM ammonium acetate pH 7.
The target is the same in series [8]. The series is described as above. This is another data set of the same source.
For series [9] the target is unchanged. The experiment in a line: SEC-MALS; Redβ with 83- then 83+ added sequentially (annealed duplex); Superose 6 increase, PBS; loaded at 34 μM; n assumes one copy of 83-:83+.
Series [10] shares this target. In words: SEC-MALS; Redβ with dT38 then dA38 added sequentially (annealed duplex, 4 nt/monomer each); Superose 6 increase, PBS; loaded at 34 μM; n assumes one copy of dT38:dA38.
Series [11] shares this target. In words: native MS; Redβ (0.1 to 30 μM) with two complementary 38-mers added sequentially (dT38:dA38; at 1 μM also 38NC1+:38NC1- and 38NC3+:40NC3-), annealed duplex; 50 mM ammonium acetate pH 7.
Series [12] has the same target. The series is described as above. The source holds these as a separate data set.
The target of series [13] is T1, Redβ single strand annealing protein (bacteriophage λ, UniProt P03698).
T1 sequence: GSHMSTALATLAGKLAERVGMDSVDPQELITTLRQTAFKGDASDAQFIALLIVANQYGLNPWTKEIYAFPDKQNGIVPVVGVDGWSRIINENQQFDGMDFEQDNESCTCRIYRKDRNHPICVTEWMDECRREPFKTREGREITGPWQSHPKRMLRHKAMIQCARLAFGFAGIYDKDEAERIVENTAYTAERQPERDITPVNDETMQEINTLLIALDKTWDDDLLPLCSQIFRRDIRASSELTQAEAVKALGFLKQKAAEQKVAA
The experiment in a line: EMSA; PBS, ssDNA alone; EMSA: 10 uM Redβ, 50 uM nt DNA, 37 C, in PBS, or 20 mM Tris-HCl pH 7.5/10 mM NaCl/10 mM MgCl2, or 50 mM ammonium acetate pH 7.0; SEC-MALS: PBS, complexes formed. As to conditions: protein: recombinant, tags: N-terminal GSH left after thrombin removal of 6xHis, chain copies: 11.

In series [14] the target is T1, Redβ single strand annealing protein. The experiment in a line: EMSA; added first, then noncomplementary Cy5 50mer; unusually high affinity; EMSA: 10 uM Redβ, 50 uM nt DNA, 37 C, in PBS, or 20 mM Tris-HCl pH 7.5/10 mM NaCl/10 mM MgCl2, or 50 mM ammonium acetate pH 7.0; SEC-MALS: PBS, complexes formed. As to conditions: protein: recombinant; tags: N-terminal GSH left after thrombin removal of 6xHis; chain copies: 11; label: 5'-Cy3.

Series [15] shares this target. The experiment in a line: EMSA; strands added sequentially, PBS; EMSA: 10 uM Redβ, 50 uM nt DNA, 37 C, in PBS, or 20 mM Tris-HCl pH 7.5/10 mM NaCl/10 mM MgCl2, or 50 mM ammonium acetate pH 7.0; SEC-MALS: PBS, complexes formed. Particulars: protein: recombinant; tags: N-terminal GSH left after thrombin removal of 6xHis; chain copies: 11; label: 5'-Cy5, 5'-Cy3; blunt.
Series [16] shares this target. In words: native MS; 1 uM Redβ; 5-15 subunits, 1 or 2 DNA; EMSA: 10 uM Redβ, 50 uM nt DNA, 37 C, in PBS, or 20 mM Tris-HCl pH 7.5/10 mM NaCl/10 mM MgCl2, or 50 mM ammonium acetate pH 7.0; SEC-MALS: PBS, complexes formed. Particulars: protein: recombinant; tags: N-terminal GSH left after thrombin removal of 6xHis; chain copies: 11.
For series [17] the target is unchanged. The experiment in a line: native MS; strands added sequentially, 1 uM Redβ; 11 subunits; EMSA: 10 uM Redβ, 50 uM nt DNA, 37 C, in PBS, or 20 mM Tris-HCl pH 7.5/10 mM NaCl/10 mM MgCl2, or 50 mM ammonium acetate pH 7.0; SEC-MALS: PBS, complexes formed. As to conditions: protein: recombinant, tags: N-terminal GSH left after thrombin removal of 6xHis, chain copies: 11.

For series [18] the target is unchanged. The experiment in a line: SEC-MALS; PBS; 427 kDa, n=14.0; EMSA: 10 uM Redβ, 50 uM nt DNA, 37 C, in PBS, or 20 mM Tris-HCl pH 7.5/10 mM NaCl/10 mM MgCl2, or 50 mM ammonium acetate pH 7.0; SEC-MALS: PBS, complexes formed. Particulars: protein: recombinant; tags: N-terminal GSH left after thrombin removal of 6xHis; chain copies: 11.
The target is the same in series [19]. The experiment in a line: native MS; 1 uM Redβ and higher; 8-13 subunits; EMSA: 10 uM Redβ, 50 uM nt DNA, 37 C, in PBS, or 20 mM Tris-HCl pH 7.5/10 mM NaCl/10 mM MgCl2, or 50 mM ammonium acetate pH 7.0; SEC-MALS: PBS, complexes formed. Particulars: protein: recombinant; tags: N-terminal GSH left after thrombin removal of 6xHis; chain copies: 11.

As to “Redβ single strand annealing protein from bacteriophage λ (from UniProt P03698 1-261)”, in [1], the stoichiometry N came out at 7.7 subunits.

In the case of “Redβ single strand annealing protein from bacteriophage λ (from UniProt P03698 1-261) (natural protein)”, the stoichiometry N in series [2] was 12 subunits; in series [3] it was 1 to 14 subunits; in series [4] it was 14 subunits; in series [5], 14.1 subunits; in [6], 21.1 subunits; in series [7] it was 22 subunits. For the same molecule, the stoichiometry N was 21 subunits and 23 subunits in [8]; 18.2 subunits in series [9]; 11.3 subunits in series [10]; 8.6 subunits and 9.1 subunits in series [1]; 11 subunits in [11]; 9 subunits and 10 subunits in series [12]. The molecule further came in with a midpoint of the transition from monomer to 12-mer in series [3] of 1 µM.

B1: Cy3 20mer (ssDNA)
DNA: GCCCTGCATAGCTCGATTTT
As to B1, in [13] (label: 5'-Cy3), the binding result was “no binding”.

B2: Cy5 16mer (ssDNA)
DNA: AAAATCGAGCTATGCA
Consider B2, for which, in series [13] (label: 5'-Cy5), the binding result is given as “no binding”.

B3: Cy3 NC 50mer (ssDNA)
DNA: GAGTGATAGGCATATGTGCTACGAGTATCGAAGGAACGGTCACTACGCAA
For B3, the binding result in [14] is listed as “binds”.

B4: Cy5 28mer (ssDNA)
DNA: AAAATCGAGCTATGCAGGGCGATTCTGC
As to B4, the binding result in series [13] (label: 5'-Cy5) is given as “no binding”.

B5: Cy3 16mer (ssDNA)
DNA: TGCATAGCTCGATTTT
For the molecule B5, the binding result in series [13] (label: 5'-Cy3) is reported as “no binding”.

B6: Cy3 28mer (ssDNA)
DNA: GCAGAATCGCCCTGCATAGCTCGATTTT
Turning to B6, in series [13] (label: 5'-Cy3), the binding result is given as “no binding”.

B7: 28mer annealed duplex (dsDNA)
DNA 1: AAAATCGAGCTATGCAGGGCGATTCTGC
DNA 2: GCAGAATCGCCCTGCATAGCTCGATTTT
As to B7, the binding result in series [15] was “binds”.

B8: 24mer annealed duplex (dsDNA)
DNA 1: AAAATCGAGCTATGCAGGGCGATT
DNA 2: AATCGCCCTGCATAGCTCGATTTT
In the case of B8, the binding result in [15] is “binds”.

B9: 20mer annealed duplex (dsDNA)
DNA 1: AAAATCGAGCTATGCAGGGC
DNA 2: GCCCTGCATAGCTCGATTTT
As for B9, in [15], the binding result is recorded as “binds”.

B10: Cy3 24mer (ssDNA)
DNA: AATCGCCCTGCATAGCTCGATTTT
As for B10, the binding result in series [13] (label: 5'-Cy3) is given as “no binding”.

B11: 38NC3+ (ssDNA)
DNA: GACGCACAATGACAGATAACACAATGGCGAGATAACGC
As to B11, the binding result in [16] was “binds”.

B12: 38NC3+:40NC3- (dsDNA)
DNA 1: GACGCACAATGACAGATAACACAATGGCGAGATAACGC
DNA 2: GCGTTATCTCGCCATTGTGTTATCTGTCATTGTGCGTCGC
For the molecule B12, in series [17] (3' overhang 2 nt on strand 2), the binding result is recorded as “binds”.

B13: Cy5 24mer (ssDNA)
DNA: AAAATCGAGCTATGCAGGGCGATT
For the molecule B13, the binding result in series [13] (label: 5'-Cy5) was “no binding”.

B14: 38NC1+ (ssDNA)
DNA: AGACACAGTAAACGGACGCTAGATGCAACGAGATCCGA
With B14, the binding result in series [16] was “binds”.

B15: 38NC1+:38NC1- (dsDNA)
DNA 1: AGACACAGTAAACGGACGCTAGATGCAACGAGATCCGA
DNA 2: TCGGATCTCGTTGCATCTAGCGTCCGTTTACTGTGTCT
For B15, the binding result in [17] (blunt) is reported as “binds”.

B16: dT38 (ssDNA)
DNA: TTTTTTTTTTTTTTTTTTTTTTTTTTTTTTTTTTTTTT
For B16, in series [18], the binding result is recorded as “binds”.

B17: Cy5 20mer (ssDNA)
DNA: AAAATCGAGCTATGCAGGGC
Consider B17, for which the binding result in series [13] (label: 5'-Cy5) is reported as “no binding”.

B18: dA38 (ssDNA)
DNA: AAAAAAAAAAAAAAAAAAAAAAAAAAAAAAAAAAAAAA
As for B18, the binding result in [19] was “binds”.

B19: 38NC1- (ssDNA)
DNA: TCGGATCTCGTTGCATCTAGCGTCCGTTTACTGTGTCT
B19: the binding result in series [16] is given as “binds”.

B20: 40NC3- (ssDNA)
DNA: GCGTTATCTCGCCATTGTGTTATCTGTCATTGTGCGTCGC
B20: the binding result in [16] is “binds”.
